# Laboratory results as given in patent US20230070731A1, “COMPOSITIONS FOR SMALL MOLECULE CONTROL OF PRECISE BASE EDITING OF TARGET NUCLEIC ACIDS AND METHODS OF USE THEREOF” (THE TRUSTEES OF THE UNIVERSITY OF PENNSYLVANIA, priority 2020, published 2023).
# B1: AID*: hyperactive AID variant (K10E, F42E, T82I, D118A, R119G, K120R, A121R, H130A, R131E, F141Y, F145E, E156G) with N-terminal MBP tag (protein, UniProt Q9GZX7 1-198, looked up, variant K10E F42E T82I D118A R119G K120R A121R H130A R131E F141Y F145E E156G)
# Single-stranded DNA cytosine …: MDSLLMNRREFLYQFKNVRWAKGRRETYLCYVVKRRDSATSESLDFGYLRNKNGCHVELLFLRYISDWDLDPGRCYRVTWFISWSPCYDCARHVADFLRGNPNLSLRIFTARLYFCEAGRREPEGLRRLAEAGVQIAIMTYKDYEYCWNTFVENHGRTFKAWEGLHENSVRLSRQLRRILLPLYEVDDLRDAFRTLGL
# modifications: N-terminal MBP tag
# Tested on: BL21(DE3) E. coli
# Assay: Bacterial DNA deaminase rifampicin mutagenesis assay (acquired rifampin resistance)
# Format: cell-based
# Settings: expression in E. coli
# Procedure: In initial studies, a foreign protein/domain was inserted into an enhanced hyperactive version of AID described in U.S. patent application Ser. No. 16/025,261 (See for example, SEQ ID NO: 20 of the '261 patent application) which is incorporated herein by reference as though set forth in full. This mutant version of the human DNA deaminase AID, involved in antibody maturation was assessed and the loop regions which appeared to be tolerant to insertion of control elements (e.g., Green Fluorescent Protein GFP fragments) were identified as described hereinbelow. Several candidate locations for insertion were identified. We used an E. coli-based rifampin mutagenesis assay to evaluate activity (See Kohli et al., J Biol Chem. (2009) 284:pages 22898-904). In this assay we measure the activity level of a mutator by measuring how many E. coli can be turned resistant to the antibiotic rifampin when the enzyme is turned on.
# The mutation frequency of various DNA deaminases, including insertion constructs, were determined using a modified version of previously reported rifampin mutagenesis assay (Kohli, JBC 2009). […] The mutation frequencies were then calculated by the ratio of rifampicin resistant colonies to total population. […]
molecule,measurement,value
B1,Rif^R increase relative to catalytically inactive mutant AID(E58A),265 fold
